Experimental data from paper PMC5342555, “ATAD2 is an epigenetic reader of newly synthesized histone marks during DNA replication” (Oncotarget, 2016).
Where a chain is given by its changes, count along the chain named. Names may count otherwise. Blank lines part the entries; values can stand above or below the molecule they belong to.

Tested on: HDAC1 binding to H4K5,12diac
Assay: In vitro competition with HDAC1 for immobilized H4K5,12diac peptides (direct binding pull down)
Conditions: full length ATAD2 0.22 μM pre-incubated 2 h, then 0.1 μM HDAC1 2 h; 1 μM peptide
Procedure: H4 peptides (1-25) conjugated with Biotin was immobilized on Streptavidin-coupled Dynabeads for 2 hours at 4 °C and incubated with nuclear extract from MCF7 cells. Nuclear extract was prepared by first isolating nucleus in hypotonic buffer (10 mM Tris-HCl pH 8.5, 10 mM NaCl, 0.5 mM TCEP and 0.1 % NP-40) and disrupting nuclear envelop in high salt buffer (20 mM Tris-HCl pH 8.5, 420 mM NaCl, 0.5 mM TCEP, 0.1 % Triton X-100, 25 % Glycerol) for 2 hours at 4 °C. Soluble nuclear extract was harvested by centrifugation at 20000 g for 20 min and diluted to 1:3 in buffer without NaCl in order to achieve physiological salt concentration, 140 mM. The nuclear extract was incubated with the immobilized peptides on the Streptavidin-Dynabeads overnight at 4 °C. Next day, the beads were washed three times with washing buffer (20 mM Tris-HCl pH 8.5, 140 mM NaCl, 0.5 mM TCEP, 0.1 % Triton X-100, 25 % Glycerol) and twice with high salt buffer. Bound proteins were recovered by boiling the beads in 1X sample buffer for 5 min. at 95 °C and analyzed by SDS-PAGE and Western Blotting. For direct binding experiments 1 μM of immobilized histone peptides on Streptavidin-Dynabeads were incubated with indicated amounts of ligands for 2 hours at 4 °C. After stringent washing as described above, bound proteins were analyzed in Western Blotting.

competition with HDAC1 for interaction with H4K5,12diac: competes
B1: WT ATAD2: recombinant FLAG-tagged full length ATAD2 purified from HEK 293 cells (protein)
chain: MVVLRSSLELHNHSAASATGSLDLSSDFLSLEHIGRRRLRSAGAAQKKPAATTAKAGDGSSVKEVETYHRTRALRSLRKDAQNSSDSSFEKNVEITEQLANGRHFTRQLARQQADKKKEEHREDKVIPVTRSLRARNIVQSTEHLHEDNGDVEVRRSCRIRSRYSGVNQSMLFDKLITNTAEAVLQKMDDMKKMRRQRMRELEDLGVFNETEESNLNMYTRGKQKDIQRTDEETTDNQEGSVESSEEGEDQEHEDDGEDEDDEDDDDDDDDDDDDDDEDDEDEEDGEEENQKRYYLRQRKATVYYQAPLEKPRHQRKPNIFYSGPASPARPRYRLSSAGPRSPYCKRMNRRRHAIHSSDSTSSSSSEDEQHFERRRKRSRNRAINRCLPLNFRKDELKGIYKDRMKIGASLADVDPMQLDSSVRFDSVGGLSNHIAALKEMVVFPLLYPEVFEKFKIQPPRGCLFYGPPGTGKTLVARALANECSQGDKRVAFFMRKGADCLSKWVGESERQLRLLFDQAYQMRPSIIFFDEIDGLAPVRSSRQDQIHSSIVSTLLALMDGLDSRGEIVVIGATNRLDSIDPALRRPGRFDREFLFSLPDKEARKEILKIHTRDWNPKPLDTFLEELAENCVGYCGADIKSICAEAALCALRRRYPQIYTTSEKLQLDLSSINISAKDFEVAMQKMIPASQRAVTSPGQALSTVVKPLLQNTVDKILEALQRVFPHAEFRTNKTLDSDISCPLLESDLAYSDDDVPSVYENGLSQKSSHKAKDNFNFLHLNRNACYQPMSFRPRILIVGEPGFGQGSHLAPAVIHALEKFTVYTLDIPVLFGVSTTSPEETCAQVIREAKRTAPSIVYVPHIHVWWEIVGPTLKATFTTLLQNIPSFAPVLLLATSDKPHSALPEEVQELFIRDYGEIFNVQLPDKEERTKFFEDLILKQAAKPPISKKKAVLQALEVLPVAPPPEPRSLTAEEVKRLEEQEEDTFRELRIFLRNVTHRLAIDKRFRVFTKPVDPDEVPDYVTVIKQPMDLSSVISKIDLHKYLTVKDYLRDIDLICSNALEYNPDRDPGDRLIRHRACALRDTAYAIIKEELDEDFEQLCEEIQESRKKRGCSSSKYAPSYYHVMPKQNSTLVGDKRSDPEQNEKLKTPSTPVACSTPAQLKRKIRKKSNWYLGTIKKRRKISQAKDDSQNAIDHKIESDTEETQDTSVDHNETGNTGESSVEENEKQQNASESKLELRNNSNTCNIENELEDSRKTTACTELRDKIACNGDASSSQIIHISDENEGKEMCVLRMTRARRSQVEQQQLITVEKALAILSQPTPSLVVDHERLKNLLKTVVKKSQNYNIFQLENLYAVISQCIYRHRKDHDKTSLIQKMEQEVENFSCSR
modifications: left off: tagGFP, end not stated, kept
notes: recombinant FLAG-tagged full length ATAD2 purified from HEK 293 cells

competition with HDAC1 for interaction with H4K5,12diac: not
B2: ATPase mutant ATAD2: recombinant full length ATPase inactive mutant ATAD2 (K473T and E532Q) (protein)
chain: B1 chain with K473T, E532Q
modifications: left off: tagGFP, end not stated, kept
